Earlier results in publication PMC8448686.

How the values were obtained:
[1] = target: CD20 (Homo sapiens) (UniProt P11836); assay: LigandTracer
[2] = target: HER2 (Homo sapiens) (UniProt P04626); assay: LigandTracer

Chain of UniProt P11836 (P11836 whole entry): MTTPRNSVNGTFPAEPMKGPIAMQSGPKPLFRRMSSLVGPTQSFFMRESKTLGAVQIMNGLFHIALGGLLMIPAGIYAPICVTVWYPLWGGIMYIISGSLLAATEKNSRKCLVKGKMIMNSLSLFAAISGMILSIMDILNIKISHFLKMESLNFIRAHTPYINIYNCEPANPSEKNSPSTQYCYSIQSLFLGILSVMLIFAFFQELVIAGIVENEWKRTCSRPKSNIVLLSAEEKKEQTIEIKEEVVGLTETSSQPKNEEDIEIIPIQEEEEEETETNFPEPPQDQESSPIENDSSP

## Rituximab
[1]
  Kd: 0.93 nM

## Pertuzumab
[2]
  Kd: 0.13 nM
